Tests used:
Capan-2 xenografts = test: in vivo; conditions: for Kidney uptake / Blood activity: ~1 MBq i.v.
Description: (§1) For in vivo experiments, at least 8-week-old female athymic NMRI-Foxn1^nu/Foxn1^nu mice (Janvier Labs, Saint-Berthevin, France) were used. Animal care followed institutional guidelines and all experiments were approved by local animal research authorities. For the generation of tumor xenografts, 5 x 10^6 cells of Capan-2 cells were inoculated subcutaneously into the left and right shoulder (1:1 phosphate-buffered saline [PBS]/Matrigel Basement Membrane Matrix High Concentration, Corning, Corning, USA). Tumors were allowed to grow for two to four weeks (tumor volume > 100 mm^3) after cell inoculation.
(§2) Radiolabeling of the DOTA-integrin αvβ6 knottin was carried out manually using [^177Lu]LuCl3 and a reagent kit from ITG Isotope Technologies Garching GmbH (Garching, Germany). A total of 40 µL (stock solution of peptide at 1 µg/µL in 10% DMSO in water) was added to 500 µL of ascorbate buffer solution pH 5.0, prepared from the kit (composition not disclosed by vendor) and the resulting mixture was then added to 35 µL of [^177Lu]LuCl3 (2 GBq in aqueous 0.04 M HCl) and the reaction mixture was heated at 80 °C for 35 minutes followed by cooling for 10 minutes at room temperature. The product was then diluted with 0.5 mL of saline and the pH was adjusted to 7 using a 1 M aqueous solution of NaHCO3 prior to injection in mice. A reverse-phase HPLC system (Knauer GmbH, Germany) with a column (Eurospher II, C18, 250 × 4 mm) was used to determine the radiochemical purity of the radiotracer. The HPLC system was equipped with an Azura P.6.1L pump coupled with ultraviolet (Azura UVD 2.1L) and radiometric (γ-Raytest-Isotopenmessgeraete GmbH, Germany) detectors. The gradient elution system used mobile phase A (100% acetonitrile) and mobile phase B (deionized H2O containing 0.1% trifluoroacetic acid) and a flow rate of 1.0 mL/min. Starting with 0% A and 100% B, the gradient was increased to 100% A over 25 min and finally returned to initial gradient conditions within 5 min.
(§3) Tumor-bearing mice (n=4-5 per time point) were injected with approximately 1 MBq (22 pmol) of ^177Lu-DOTA-integrin αvβ6 knottin to the tail vein via a catheter. Mice (n=4-5 per time point) were sacrificed and dissected one, two, three and eight days post injection. Tumor, blood, stomach, pancreas, small intestine, colon, liver, spleen, kidney, heart, lung, muscle and femur samples were weighed and uptake of radioactivity was measured by a gamma counter.

in vivo = conditions: female, NMRI-Foxn1^nu/Foxn1^nu (athymic nude), mouse, iv, 1 MBq, total radioactivity; for tissue uptake at 24 h: 24 h p.i.; for tissue uptake at 24 h / tissue uptake at 48 h / tissue uptake at 72 h / tissue uptake at 192 h: nude mice, Capan-2 xenografts, mean ± SD (4 ≤ n ≤ 5); for tissue uptake at 48 h: 48 h p.i.; for tissue uptake at 72 h: 72 h p.i.; for tissue uptake at 192 h: 192 h p.i.
Description: as §1, §2, §3

[1] = 192 h p.i., nude mice, Capan-2 xenografts, mean ± SD (4 ≤ n ≤ 5)
[2] = colon, Colon uptake, ~1 MBq i.v.
[3] = liver, Liver uptake, ~1 MBq i.v.
[4] = small intestine, Small intestine uptake, ~1 MBq i.v.
[5] = spleen, Spleen uptake, ~1 MBq i.v.
[6] = tail, Tail activity, ~1 MBq i.v.
[7] = tumor, Tumor uptake, ~1 MBq (22 pmol) i.v.

Work on `CC[C@H](C)[C@@H]1NC(=O)[C@@H](NC(=O)CNC(=O)CN2CCN(CC(=O)O)CCN(CC(=O)O)CCN(CC(=O)O)CC2)CSSC[C@@H]2NC(=O)[C@H](C)NC(=O)CNC(=O)[C@@H]3CCCN3C(=O)[C@@H]3CSSC[C@@H](C(=O)NCC(=O)O)NC(=O)[C@H](Cc4ccc(O)cc4)NC(=O)CNC(=O)[C@H](CC(N)=O)NC(=O)CNC(=O)[C@H](CCCNC(=N)N)NC(=O)[C@H](CSSC[C@H](NC(=O)[C@H](CCCNC(=N)N)NC(=O)[C@H](Cc4ccccc4)NC(=O)[C@H](CC(C)C)NC(=O)[C@H](CC(C)C)NC(=O)[C@H]([C@@H](C)O)NC(=O)CNC(=O)[C@H](CC(C)C)NC(=O)[C@H](CC(=O)O)NC(=O)[C@H]([C@@H](C)O)NC(=O)[C@H](CCCNC(=N)N)NC(=O)CNC(=O)[C@H](CC(N)=O)NC(=O)[C@H](CC(C)C)NC1=O)C(=O)N[C@@H](CCCNC(=N)N)C(=O)N[C@@H](CCCNC(=N)N)C(=O)N[C@@H](CC(=O)O)C(=O)N[C@@H](CO)C(=O)N[C@@H](CC(=O)O)C(=O)N3)NC(=O)[C@H]([C@@H](C)CC)NC2=O` [^177Lu-DOTA-integrin αvβ6 knottin, metal not drawn] yielded a Tumor uptake (Capan-2 xenografts; 24 h p.i., ~1 MBq (22 pmol) i.v., nude mice, Capan-2 xenografts, mean ± SD (4 ≤ n ≤ 5)) of 3.13 ± 0.63 %IA/g, a Kidney uptake (Capan-2 xenografts; 24 h p.i., nude mice, Capan-2 xenografts, mean ± SD (4 ≤ n ≤ 5)) of 19.2 ± 2.5 %IA/g and a Blood activity (Capan-2 xenografts; 48 h p.i., nude mice, Capan-2 xenografts, mean ± SD (4 ≤ n ≤ 5)) of 0.00 %IA/g. The Blood activity (Capan-2 xenografts; [1]) was 0.00 %IA/g, the Kidney uptake (Capan-2 xenografts; [1]) was 2.3 ± 0.40 %IA/g and the “Tumor uptake compared with ^64Cu conjugate” value (Capan-2 xenografts; comparison with earlier study, cited there as [19]) was “tumor uptake was not found to be higher”. The “Kidney wash-out versus tumor (ex vivo)” value (Capan-2 xenografts; days 1, 2, 3 and 8 p.i., listed as 177Lu tracer) was “in the tumor the activity was cleared at a much lower rate than in the kidney”, the “Activity in organs like stomach, colon and lung” value (Capan-2 xenografts; later time points) was “low or moderate activity” and the tissue uptake at 24 h (in vivo; [2]) was 1.37 %ID/g. For the same compound, the tissue uptake at 48 h (in vivo; [2]) was 0.56 %ID/g, the tissue uptake at 72 h (in vivo; [2]) was 0.43 %ID/g and the tissue uptake at 192 h (in vivo; [2]) was 0.04 %ID/g. For the same compound, the tissue uptake at 24 h (in vivo; [3]) was 0.24 %ID/g, the tissue uptake at 48 h (in vivo; [3]) was 0.18 %ID/g and the tissue uptake at 72 h (in vivo; [3]) was 0.2 %ID/g. The tissue uptake at 192 h (in vivo; [3]) was 0.08 %ID/g, the tissue uptake at 24 h (in vivo; [4]) was 0.76 %ID/g and the tissue uptake at 48 h (in vivo; [4]) was 0.35 %ID/g. For the same compound, the tissue uptake at 72 h (in vivo; [4]) was 0.27 %ID/g, the tissue uptake at 192 h (in vivo; [4]) was 0.02 %ID/g and the tissue uptake at 24 h (in vivo; [5]) was 0.06 %ID/g. For the same compound, the tissue uptake at 48 h (in vivo; [5]) was 0.07 %ID/g, the tissue uptake at 72 h (in vivo; [5]) was 0.18 %ID/g and the tissue uptake at 72 h (in vivo; [6]) was 0.16 %ID/g. For the same compound, the tissue uptake at 192 h (in vivo; [6]) was 0.08 %ID/g, the tissue uptake at 48 h (in vivo; [7]) was 2.45 %ID/g and the tissue uptake at 72 h (in vivo; [7]) was 3.46 %ID/g. The tissue uptake at 192 h (in vivo; [7]) was 1.16 %ID/g, the Kp at 24 h (in vivo; tumor/blood) was 498 and the Kp at 48 h (in vivo; tumor/blood) was 851. It also gave a Kp at 72 h (in vivo; tumor/blood) of 697, a Kp at 192 h (in vivo; tumor/blood) of 2120 and a tissue to tissue ratio at 24 h (in vivo; tumor/kidney) of 0.17. For the same compound, the tissue to tissue ratio at 48 h (in vivo; tumor/kidney) was 0.19, the tissue to tissue ratio at 72 h (in vivo; tumor/kidney) was 0.24 and the tissue to tissue ratio at 192 h (in vivo; tumor/kidney) was 0.51. For the same compound, the tissue to tissue ratio at 24 h (in vivo; tumor/liver) was 13, the tissue to tissue ratio at 48 h (in vivo; tumor/liver) was 13.6 and the tissue to tissue ratio at 72 h (in vivo; tumor/liver) was 18.4. The tissue to tissue ratio at 192 h (in vivo; tumor/liver) was 14.6, the tissue to tissue ratio at 24 h (in vivo; tumor/muscle) was 13.1 and the tissue to tissue ratio at 48 h (in vivo; tumor/muscle) was 23.1. It also gave a tissue to tissue ratio at 72 h (in vivo; tumor/muscle) of 35.8, a tissue to tissue ratio at 192 h (in vivo; tumor/muscle) of 32.9 and a tissue to tissue ratio at 24 h (in vivo; tumor/pancreas) of 13.1. The tissue to tissue ratio at 48 h (in vivo; tumor/pancreas) was 15.6.

Source: paper PMC8200818, “SPECT/CT Imaging, Biodistribution and Radiation Dosimetry of a ^177Lu-DOTA-Integrin αvβ6 Cystine Knot Peptide in a Pancreatic Cancer Xenograft Model” (Frontiers in Oncology, 2021)
